Reference: the supplement of paper PMC12042874
± gives the uncertainty stated by the source.

Test: amyloid nucleation score (Sup35N fusion, yeast selection) (log enrichment); library NNK1; higher = more nucleation; inactive = no reads after selection
Outline: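 The nucleation score, computed with DiMSum, is the log enrichment of output over input reads, centred on the mode score of non-aggregating sequences. Sequences with under 100 input reads were dropped. Reads were generated by Illumina sequencing of plasmid inserts from psi-negative yeast with Sup35N fused to peptides of 20 random codons, induced with 100 μM copper sulfate for 24 hours and grown 7 days at 30°C on medium lacking adenine and uracil.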

Substance | amyloid nucleation score
RVFQSNPCGT | 0.109 ± 1.4
RVGAPFNLVRSCSGATLCEV | -0.023 ± 0.63
RVGESVI | 0.348 ± 0.55
RVGKYDLKSRDLGVGVDGVG | 0.586 ± 0.29
RVGQSCCDFT | -0.047 ± 1.1
RVILARHHPDDCMGLR | -0.26 ± 0.39
RVITYSV | -0.016 ± 1.4
RVKEPFRTYSRTALMC | 0.306 ± 0.41
RVKYAGGPIGYLFCLWVLCW | -0.895 ± 1.5
RVNLKGWKRHSIRRSNMYRV | inactive
RVSFQIVTVGWC | -1.13 ± 1.2
RVSMVEVNLIYYMLPGHA | -0.125 ± 0.54
RVSVDRPQRVGTGSPCCGGD | 2.77 ± 0.11
RVTDLYFASGGQLMQRSVLL | 0.331 ± 0.6
RVTFLWLCLYQGMVALVNSP | -0.156 ± 0.84
RVVMLCLVCLFGVRGS | 0.827 ± 0.52
RVVRKPCFPGVGRILSADLA | 0.958 ± 0.59
RWDYDWNQVSCNDSRIGKLT | 0.565 ± 0.61
RWGDHKQC | 0.041 ± 0.41
RWNFFTFWFLW | 0.048 ± 0.46
RWPDQCLLMLWMVLLFPSWE | -0.552 ± 0.28
RWQAFGTELYGTSWSFREYG | 0.148 ± 0.47
RWSLAWKIMCEL | 0.055 ± 0.3
RWYVEPSSMFLSRLDGLFYK | -0.702 ± 1.9
RYDSRFALPLDLS | -0.245 ± 0.45
RYFLEMISRYISRN | inactive

Substance | amyloid nucleation score
RYGAESELTPRSASHGYWKF | -0.313 ± 1.1
RYICSYCYALCGFGDYYGGK | 0.24 ± 0.34
RYLDSLYKPRYYYQMVAIYG | 0.004 ± 0.41
RYLIPTYF | -1.76 ± 0.57
RYMDMLLRTDWDWLVSQCRF | -0.344 ± 0.33
RYNCVDV | -0.765 ± 0.52
RYNMPFYRDRRFCFFEKGLG | -0.077 ± 0.77
RYPPG | -0.077 ± 1.1
RYSFLANGASSFGCVVLFSL | 0.503 ± 0.93
RYSGFLSVSLL | -0.087 ± 1
RYSYFSSASCLRYRAPKGRG | 0.098 ± 0.32
RYTEAASICRLVLGGQGVRI | -0.155 ± 0.96
RYTIDLMSFNIKFWSHTLLH | -0.869 ± 1.5
RYVNRT | -0.497 ± 1.2
RYVTDSGVGSIPRYLIKCSR | -0.111 ± 0.42
RYWLYVKFGWYLTDGFYSGS | 0.665 ± 0.29
RYYLISEPILWIYGY | -0.031 ± 0.33
RYYNFFMGLTWG | -0.395 ± 0.48
RYYRVLLKFVLLSLVCTRYA | 0.578 ± 0.19
SAAVGLLVHQYRSSELQLFN | 0.136 ± 1
SADPFVFVALQWNHGVGSWR | 4.06 ± 0.069
SADPSNYRERIFLKLMKLHG | -0.514 ± 0.37
SAFSLIGLIVMNAGK | 6.04 ± 0.076
SAILVLFEVHFMAPLLCHYL | 0.208 ± 0.42
SALHVHRVKGSRREVSRDT | -0.072 ± 0.31
SALSGWVANSCYEVRGLRNV | inactive

Substance | amyloid nucleation score
SANMKYRTLKQSLG | 0.176 ± 0.52
SANRTHNWY | -0.451 ± 0.44
SAPIDISMQLC | -0.18 ± 1.7
SARHSMAEAMEYYIFGWVPR | -1.16 ± 1.2
SAVQGCNGRCCYFGRGWWSG | 3.4 ± 0.083
SCDFILLLAVT | 0.352 ± 0.36
SCDMAEFSEDLTLCLLNHK | -0.651 ± 1.7
SCGCYKSSLVNLL | 0.328 ± 0.9
SCGLTCDAEYGRGFPGLCMM | 0.001 ± 1.1
SCGNNYTSV | -0.236 ± 0.2
SCKLIDRAILICWRSPTALV | 0.109 ± 1.6
SCLPDQMKVVVPLMWLKFSR | -0.266 ± 0.33
SCLYQGCYLNCVIDIMGCGL | 5.83 ± 0.089
SCPGK | 0.001 ± 0.44
SCPVPKLLAIGLSHVRSFGF | -0.47 ± 0.42
SCPWLDSSLCFMNVGVLIYK | 3.37 ± 0.062
SCQATLLFLSYSSNVGLIST | -0.267 ± 1.1
SCSLITQGFRYPWLIYHRCY | 0.436 ± 0.93
SCSPGTYSWFNWWYKSPGVE | -0.021 ± 0.65
SCSYLSKYTYRREMVYGNEV | 0.002 ± 0.22
SCTPWAVLFMLKSALGSLRG | 0.708 ± 0.71
SCVLRRNSHRIMDSYPRYGQ | 0.151 ± 0.29
SDAGARKIIFCFEIITQHPV | -0.235 ± 0.42
SDASHHHRYRESHDYCFFRK | 0.272 ± 0.4
SDFTIINFQYFLASCCTGYV | 7.602 ± 0.048
SDIMGTVLSYFGINLVYAPC | inactive

Substance | amyloid nucleation score
SDKLTRFSTRVFR | -0.586 ± 0.39
SDLMWVLSCESLRITHRLVG | 1.93 ± 0.56
SDMYIL | 0.807 ± 0.43
SDNTMSPKLCLMASWVRIST | 0.418 ± 0.23
SDNVSRLRILDR | 1.93 ± 0.47
SDRNERSVLSTCFGGCVPTG | 1.14 ± 0.24
SDVLYIFTYMDKCQRSRLGV | 0.096 ± 0.26
SDVWGWWGRSRVTADYFADV | -1.17 ± 1.7
SELIAQDMPQIENLTVDAAW | -0.38 ± 0.35
SEMGYPGWTGKERKRLSNWA | -0.989 ± 0.8
SEQSMTY | inactive
SETQNRLS | -0.024 ± 0.33
SFAADLFPRLVKACYSGILM | -0.413 ± 1.5
SFCAYFVAGIAGNIRVS | 0.098 ± 0.42
SFCMMLVSLVFSSKKISHHA | 0.877 ± 0.49
SFDRCCRGFAWISYGEQTAY | 0.219 ± 0.53
SFFGFMVMTSRDDRFRLQ | 3.04 ± 0.085
SFFLLPMWLIVGSRGHQRRT | inactive
SFKWLGTFRYSYTKSTEHVW | -0.534 ± 1.2
SFLNINPRQFSWIYCPLVVY | 2.94 ± 0.23
SFSIN | 0.238 ± 0.29
SFSSPHLPYTCGSSIG | 0.258 ± 0.66
SFSTKPTCRPPILHSLERVT | 3.62 ± 0.064
SFVCRCFSMCNGEILFLIPY | 0.644 ± 1
SGAGVGSPVVKELSWFKLKV | 0.331 ± 0.77
SGAPESYGDTNRRIVSSCFL | inactive

Substance | amyloid nucleation score
SGAPRSCFNHSVFRMRASCL | 0.114 ± 1.4
SGAVCIQALKVDTQCFADMI | -0.413 ± 0.38
SGGWTSLDGDMSCSSVTYLV | -0.703 ± 0.84
SGHDGARVVMRRILYTSKSG | 0.291 ± 0.34
SGIRLM | -1.32 ± 1.8
SGKYAFLFLVYCTGVLMKCW | -1.17 ± 1.7
SGLFMWYGSQTPYNIMMKQK | inactive
SGLFPVLGEHGNHRVSGSI | -1.4 ± 1.6
SGNKGRLSLLYYILFMPWLA | -0.412 ± 1
SGRPGTAQLRVVLGHNQKCA | 1.12 ± 0.97
SGRYMWQEISLMFCLSDVSP | 0.836 ± 0.58
SGSGRCTNLSCVGGFGKWLM | 0.714 ± 0.6
SGTESEFKVKMNKLQSSYMG | -0.022 ± 0.45
SGVLLINGVA | 0.699 ± 0.42
SHGVVYGFIMLVMEEYLRQQ | -0.376 ± 0.27
SHLLLHSLWSDPGIIVDLYT | inactive
SHNGCKIWGMDNLIVH | -0.616 ± 0.46
SHPMDKRLWEKSYKAVGVCV | 0.174 ± 0.58
SHRRGVKSTFLMRRLHYMWY | 0.168 ± 0.62
SHRSRGLANRSCDGVPTVRR | 1.84 ± 0.46
SHVLCSDTNTI | inactive
SIDFV | 0.989 ± 0.88
